We go through 13 molecules from patent US20250250357A1.

Test [1] addresses human MSLN-R3-3 polypeptide (human). Nature of the test: ELISA, coated antigen, antibody 0.1 nM.
Test [2] deals with human MSLN full-length protein (NCBI: AAH09272.1) on stably transfected CHO-K1 or HEK293T cells (human) (UniProt Q13421). The test is described as follows: FACS on CHO-K1-hMSLN-2C8 cells; antibody 0.032 nM.
In test [3] the target is human MSLN-R3-3 polypeptide (human). Nature of the test: ELISA, coated antigen, antibody 0.01 nM.
The target in test [4] is human MSLN full-length protein (NCBI: AAH09272.1) on stably transfected CHO-K1 or HEK293T cells (human) (UniProt Q13421). The test is described as follows: FACS on CHO-K1-hMSLN-2C8 cells; antibody 20 nM.
In test [5] the target is human MSLN-R3-3 polypeptide (human). The test is described as follows: ELISA, coated antigen, antibody 100 nM. Background: ELISA stands for enzyme-linked immunosorbent assay.
For test [6], the target named is human MSLN full-length protein (NCBI: AAH09272.1) on stably transfected CHO-K1 or HEK293T cells (human) (UniProt Q13421). The test is described as follows: FACS on CHO-K1-hMSLN-2C8 cells; antibody 0.00128 nM.
The target of test [7] is human MSLN-R3-3 polypeptide (human). Nature of the test: ELISA, coated antigen, antibody 0.0001 nM.
Test [8] shares this target. The test is described as follows: ELISA; antibody 1 nM.
In test [9] the target is human MSLN full-length protein (NCBI: AAH09272.1) on stably transfected CHO-K1 or HEK293T cells (human) (UniProt Q13421). The test is described as follows: FACS on CHO-K1-hMSLN-2C8 cells; antibody 0.0064 nM.
For test [10], the target named is human MSLN-R3-3 polypeptide (human). The test is described as follows: ELISA, coated antigen, antibody 10 nM.
Test [11] shares this target. The test is described as follows: ELISA, coated antigen, antibody 1 nM.
The target is the same in test [12]. Nature of the test: ELISA, coated antigen, no antibody (blank).
Test [13] has as its target human MSLN full-length protein (NCBI: AAH09272.1) on stably transfected CHO-K1 or HEK293T cells (human) (UniProt Q13421). Nature of the test: FACS on CHO-K1-hMSLN-2C8 cells; antibody 4 nM.
Test [14] deals with human MSLN-R3-3 polypeptide (human). Nature of the test: ELISA, coated antigen, antibody 0.001 nM.
The target of test [15] is human MSLN full-length protein (NCBI: AAH09272.1) on stably transfected CHO-K1 or HEK293T cells (human) (UniProt Q13421). The test is described as follows: FACS on CHO-K1-hMSLN-2C8 cells; antibody […].
Test [16] shares this target. The test is described as follows: FACS on CHO-K1-hMSLN-2C8 cells; antibody 100 nM.
Test [17] has the same target. The test is described as follows: FACS on CHO-K1-hMSLN-2C8 cells; antibody 0.8 nM.
For test [18], the target named is monkey MSLN full-length protein (NCBI: XP_028696439.1) expressed on HEK293T-monkey MSLN cells (monkey). The test is described as follows: FACS on HEK293T-monkey MSLN cells.
Test [19] has as its target human MSLN on OVCAR3 tumor cells (human) (UniProt Q13421). Nature of the test: FACS, OVCAR3 cells.
Test [20] deals with human MSLN-R3 protein (Met487-Ser606 of NCBI AAH09272.1) expressed on HEK293T-hMSLN-R3 cells (human) (UniProt Q13421). Nature of the test: FACS on HEK293T-hMSLN-R3 cells.
human MSLN-R3 protein (Met487-Ser606 of NCBI AAH09272.1) expressed on HEK293T-hMSLN-R3 cells (human), sequence (Q13421 495-614): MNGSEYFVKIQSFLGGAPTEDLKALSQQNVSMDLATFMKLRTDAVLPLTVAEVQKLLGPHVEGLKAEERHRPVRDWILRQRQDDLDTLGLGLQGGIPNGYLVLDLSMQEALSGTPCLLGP

human MSLN on OVCAR3 tumor cells (human), sequence (Q13421 other isoform, or with tags, fused parts or gaps): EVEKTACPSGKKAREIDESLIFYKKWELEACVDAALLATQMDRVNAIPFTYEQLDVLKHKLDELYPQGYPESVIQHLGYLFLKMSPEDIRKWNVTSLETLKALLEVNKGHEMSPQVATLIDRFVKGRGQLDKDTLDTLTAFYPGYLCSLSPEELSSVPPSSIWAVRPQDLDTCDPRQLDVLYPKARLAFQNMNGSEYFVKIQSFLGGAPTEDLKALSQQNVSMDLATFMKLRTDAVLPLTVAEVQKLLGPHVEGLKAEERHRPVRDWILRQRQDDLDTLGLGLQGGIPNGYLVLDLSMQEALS

B1: Tab106 (YP218, hIgG1) (antibody, V domains shown)
VH: QQQLEESGGGLVKPEGSLTLTCKASGFDLGFYFYACWVRQAPGKGLEWIACIYTAGSGSTYYASWAKGRFTISKASSTTVTLQMTSLAAADTATYFCARSTANTRSTYYLNLWGPGTLVTVSS
VL: DVVMTQTPASVSEPVGGTVTIKCQASQRISSYLSWYQQKPGQRPKLLIFGASTLASGVPSRFKGSGSGTEYTLTISDLECADAATYYCQSYAYFDSNNWHAFGGGTEVVVRT
Turning to B1, the OD450 in test [1] is 0.08; in test [3], 0.05; in [5] it was 1.94; in test [7] it was 0.06; in test [10], 1.35; in test [11], 0.33. Moreover, the OD450 came to 0.07 in test [12] and 0.05 in [14]. Also, the FACS fluorescence intensity in test [2] worked out at 119; in test [4], 6270; in test [6], 68; in test [9], 77; in test [13], 2780; in test [15], 270. Moreover, the FACS fluorescence intensity amounted to 6720 in [16] and 812 in [17]. The molecule further had an OD450 nm in [8] of 0.98.

B2: S009-F2.58.8 (antibody, human IgG1, kappa, V domains shown)
VH: QVQLLQSGAELAKPGASVKLSCKASGYTFTSYWVHWVKQRPGQGLEWIGYINPNSGYTKYNQKFKDKATLTADKSSSTAYMQLSSLTYEDSAVYYCADHYYGSSRDYFDYWGQGTTLTVSS
VL: QIVLTQSPAIMSASPGEKVTMTCSASSSVSYMYWYQQRPGSSPRLLIYDTSNLASGVPVRFSGSGSGTSYSLTISRMEAEDAATYYCQQWNSYPYTFGGGTKLEIKR
In test [18], B2 showed a Maximum mean fluorescence intensity of 1000.

B3: F3.80.22-H3 (scFv, not shown: small tags and cut ends)
scFv: DIVMTQTPLSLPVTPGEPASISCRSSQSLEHNNGNTYLHWFLQKPGQSPQLLIYKVSNRFSGVPDRFSGSGSGTDFTLKISRVEAEDVGVYYCSQSTHVPFTFGQGTKLEIKGGGGSGGGGSGGGGSEVQLVQSGAEVKKPGATVKISCKASGYTFTDYEIHWVQQAPGKGLEWMGAFDPEIGGSAYNQKFKDRVTITADKSTSTAYMELSSLRSEDTAVYYCTDYYGSSSGYFDVWGTGTTVTVSS
B3 returned a Maximum MFI in test [19] of 502 MFI.

B4: F3.80.22-H8 (scFv, not shown: small tags and cut ends)
scFv: DIVMTQTPLSLPVTPGEPASISCRSSQSLEHNDGNTYLHWFLQKPGQSPQLLIYKVSNRFSGVPDRFSGSGSGTDFTLKISRVEAEDVGVYYCSQSTHVPFTFGQGTKLEIKGGGGSGGGGSGGGGSEVQLVQSGAEVKKPGATVKISCKASGYTFTDYEIHWVQQAPGKGLEWMGAFDPEIGGSAYNQKFKDRVTITADKSSSTAYMELSSLRSEDTAVYYCTDYYGSSSGYFDVWGTGTTVTVSS
Molecule B4 displayed a Maximum MFI in test [19] of 502 MFI.

B5: F3.80.22-H4 (scFv, not shown: small tags and cut ends)
scFv: DIVMTQTPLSLPVTPGEPASISCRSSQSLEHNNGNTYLHWFLQKPGQSPQLLIYKVSNRFSGVPDRFSGSGSGTDFTLKISRVEAEDVGVYYCSQSTHVPFTFGQGTKLEIKGGGGSGGGGSGGGGSEVQLVQSGAEVKKPGATVKISCKASGYTFTDYEIHWVQQAPGKGLEWMGAFDPEIGGSAYNQKFKDRVTITADKSSSTAYMELSSLRSEDTAVYYCTDYYGSSSGYFDVWGTGTTVTVSS
On to B5, for which, in test [19], the Maximum MFI worked out at 505 MFI.

B6: F3.80.22-H7 (scFv, not shown: small tags and cut ends)
scFv: DIVMTQTPLSLPVTPGEPASISCRSSQSLEHNDGNTYLHWFLQKPGQSPQLLIYKVSNRFSGVPDRFSGSGSGTDFTLKISRVEAEDVGVYYCSQSTHVPFTFGQGTKLEIKGGGGSGGGGSGGGGSEVQLVQSGAEVKKPGATVKISCKASGYTFTDYEIHWVQQAPGKGLEWMGAFDPEIGGSAYNQKFKDRVTITADKSTSTAYMELSSLRSEDTAVYYCTDYYGSSSGYFDVWGTGTTVTVSS
As for B6, the Maximum MFI in [19] is 479 MFI.

B7: F3.80.22-H6 (scFv, not shown: small tags and cut ends)
scFv: DIVMTQTPLSLPVTPGEPASISCRSSQSLEHNDGNTYLHWFLQKPGQSPQLLIYKVSNRFSGVPDRFSGSGSGTDFTLKISRVEAEDVGVYYCSQSTHVPFTFGQGTKLEIKGGGGSGGGGSGGGGSEVQLVQSGAEVKKPGATVKISCKASGYTFTDYEIHWVQQAPGKGLEWMGAFDPEIGGSAYNQKFKDRVTITADKSTSTAYMELSSLRSEDTAVYYCTDYYGSSSGYFDVWGQGTTVTVSS
Turning to B7, the Maximum MFI in test [19] is 473 MFI.

B8: S009-F2.47.1 (antibody, human IgG1, kappa, V domains shown)
VH: QVQLQQPGAELVKPGASVKLSCKASGYTFTSYWMHWVKQRPGQGLEWIGMIHPNSGSTNYNEKFKSKATLTVDKSSSTAYMQLSSLTSEDSAVYYCARPVVPYWYFDVWGTGTTVTVSS
VL: DIVMTQSQKFMSTTVGDRVSITCKASQNVGTAVAWYQQKPGQSPKLLIYSASNRYTGVPDRFTGSGSGTDFTLTISNMQSEDLADYFCQQSSSYPLTFGAGTKLELKR
The molecule B8 registered a Maximum mean fluorescence intensity in [20] of 4580.

B9: Tab107 (YP3, hIgG1) (antibody, V domains shown)
VH: QEQLVESGGGLVQPGASLTLTCTASGIDFSRYYMCWVRQAPGKGLEGIACIYIGGSGSTYYASWAKGRFTISKASSTTVTLQMTSLTAADTATYFCARGTNLNYIFRLWGPGTLVTVSS
VL: DVVMTQTPSPVSAAVGGTVTIKCQASQSINNGLAWYQQKPGQPPRLLIYSASNLESGVPSRFKGSGSGTEFTLTISDLECDDAATYYCQCIWDGNSYVNAFGGGTEVVVRT
In the case of B9, the FACS fluorescence intensity in test [2] was determined as 120; in test [4], 6930; in test [6] it was 63; in [9] it was 70; in test [13], 2960; in [15], 264. The FACS fluorescence intensity in test [16] stood at 7860; in test [17], 767. The OD450 nm in test [8] was 0.07.

B10: S009-F1.59.1 (antibody, human IgG1, kappa, V domains shown)
VH: EVKLEGSGGGLVQPGGSMMLSCVATGFTFSSYWMNWVRQSPDRGLEWVAEIRLKSNGFAAFYAESVKGRFTISRDDSKSSVYLQMNNLRTEDTGIYYCTYFVHWGQGILVTVSE
VL: DIVLTQSPTSLAVSLGQRATISCRTSESVEYFGTILIQWYQQKPGQPPKLLIFGASNVESGVPARFSGSGSGTDFSLNIHPVEEEDIAMYFCQQNRKVPYTFGGGTTLELKR
Regarding B10, the Maximum mean fluorescence intensity in test [18] came to 1420.

B11: F3.38.10-L2H3a (scFv, not shown: small tags and cut ends)
scFv: DIVMTQSPDSLAVSLGERATINCRSSQSLIHSDGNTYLQWYQQKPGQSPKLLIYKVSNRFSGVPDRFSGSGSGTDFTLTISSLQAEDVAVYYCSQTTHVPFTFGQGTKLEIKGGGGSGGGGSGGGGSEVQLVQSGAEVKKPGASVKVSCKASGYIFTDYYMNWVRQAPGQRLEWMGVINPKQGVISHNQKFKGRVTITVDKSANTAYMELSSLRSEDTAVYYCANYGSRFYAMDYWGQGTTVTVSS
On to B11, for which, in test [19], the Maximum MFI was 499 MFI.

B12: S009-F1.62.9 (antibody, human IgG1, kappa, V domains shown)
VH: EVQLQQSGADLVKPGASVKLSCTVFGLNFKDTFMHWVRQRPEQGLEWIGRIDPANDNSIYGPKFQDKATITADTSSNTAYLHLSSLTSEDTAVYYCLYFDNWGHGTTLTVSS
VL: DIVMTQAASSEPVTPGESVSISCRSDKSLLHSNGHNYLYWFLQRPGQSPHLLIYRMSNLASGVPDRFSGSGSGTAFTLRISRVEAEDVGVYYCMQHLEYPLTFGAGTKLELKR
B12: the Maximum mean fluorescence intensity in test [18] was 965.

B13: F3.80.22-H17 (scFv, not shown: small tags and cut ends)
scFv: EVQLVQSGAEVKKPGATVKISCKVSGYTFTDYEIHWVQQAPGKGLEWMGAFDPEIGGSAYNQKFKDRVTITADKSTDTAYMELSSLRSEDTAVYYCTDYYGSSSGYFDVWGQGTTVTVSSGGGGSGGGGSGGGGSDIVMTQTPLSLPVTPGEPASISCRSSQSLEHNDGNTYLHWFLQKPGQSPQLLIYKVSNRFSGVPDRFSGSGSGTDFTLKISRVEAEDVGVYYCSQSTHVPFTFGQGTKLEIK
Molecule B13 showed a Maximum MFI in test [19] of 456 MFI.
